This is an account of results in publication PMC12724329.

The target in the experiment is gcKPNB3-FLAG (grass carp importin beta 3, FLAG-tagged) (grass carp). Description: co-IP; co-IP of IRF3 with gcKPNB3 from GCRV-infected CIK cells with gcDDX56 overexpressed (+, 4 µg; ++, 8 µg plasmid) or knocked down by siRNA; bands quantified with ImageJ.

“gcIRF3-HA (grass carp IRF3, HA-tagged) (natural protein)” registered a fold change of the interaction on gcDDX56 knockdown against the siRNA control of 3.23 fold.
